Test results as given in patent US20200197440A1 (LENTIGEN TECHNOLOGY, published 2020).

What was measured:
[1] = target: CD38 on CD38-positive tumor lines RPMI-8226 and MM1.S (UniProt P28907 1-300, limits assumed); experiment: cell-based or functional assay
[2] = target: T1, CD38-His peptide (Thermo Fisher Scientific) (UniProt P28907 43-300, limits assumed); experiment: flow cytometry of LV-transduced primary T cells stained with CD38-His, then anti-His PE
T1 construct: Bought staining reagent, detected with anti-His-PE; also called CD38-His reagent; CD38-His tagged peptide; not shown: His tag

Binder | tumor killing of RPMI-8226 at E:T ratio of 1:5 (so in the source) [1] [% tumor killing] | surface expression level, % CAR T+ (CD38-His staining) [2] [%]
CAR construct LTG2090 (hScFv aCD38 CD8 TM 4-1BB CD3 zeta) (other, Chimeric antigen receptor on transduced human primary T cells) EVQLVESGGGSVQPGGSLRLSCAASEFTFSSYWMHWVRQAPGKGLEWVAVISYDGAKKYYADSVKGRFTISRDNSKNTLYLQMNSLRAEDTAVYYCARDDGSGGFDYWGQGTLVTVSSGGGGSGGGGSGGGGSDIVMTHTPLSLSVTPGQPASISCKSSQSLLHSDGKTYLYWYLQKPGQPPQLLIYEVSNRFSGVPDRYSGSGSGTDFTLKISRVEAEDVGVYYCMQSIQLPLTFGGGTKLEIKAAATTTPAPRPPTPAPTIASQPLSLRPEACRPAAGGAVHTRGLDFACDIYIWAPLAGTCGVLLLSLVITLYCKRGRKKLLYIFKQPFMRPVQTTQEEDGCSCRFPEEEEGGCELRVKFSRSADAPAYQQGQNQLYNELNLGRREEYDVLDKRRGRDPEMGGKPRRKNPQEGLYNELQKDKMAEAYSEIGMKGERRRGKGHDGLYQGLSTATKDTYDALHMQALPPR | < 70 | > 45
CAR construct LTG2098 (hScFv aCD38 CD8 TM 4-1BB CD3 zeta) (other, Chimeric antigen receptor on transduced human primary T cells) QVQLQQSGPGLVKPSQTLSLTCVISGDSVSSNSAAWNWIRQSPSRGLEWLGRTYYRSKWHNDYAVSVESRIIVNPDTSKNQFSLQLNSVTPEDTAVYYCARDPGYFYGLDVWGQGTMVTVSSGGGGSGGGGSGGGGSNFMLTQPHSVSESPGKTVTIPCTRSSGTIADYYVQWYQQRPDSSPIIVIYDDNQRPSGVPDRFSGSIDSSSNSASLTISGLKTEDEAAYYCQSYDSTNHWVFGGGTKLTVLGAAATTTPAPRPPTPAPTIASQPLSLRPEACRPAAGGAVHTRGLDFACDIYIWAPLAGTCGVLLLSLVITLYCKRGRKKLLYIFKQPFMRPVQTTQEEDGCSCRFPEEEEGGCELRVKFSRSADAPAYQQGQNQLYNELNLGRREEYDVLDKRRGRDPEMGGKPRRKNPQEGLYNELQKDKMAEAYSEIGMKGERRRGKGHDGLYQGLSTATKDTYDALHMQALPPR | < 40 | > 75
CAR construct LTG2099 (hScFv aCD38 CD8 TM 4-1BB CD3 zeta) (other, Chimeric antigen receptor on transduced human primary T cells) QVTLKESGPVLVKPTETLTLTCTFSGFSLSTSGVGVAWIRQPPGKDLEWLALIYWDDDKRYSPSLESRLTITKDTSKNQVALTMSDMDPVDTATYYCARGDYWGRLDYWGQGTLVTVSSGGGGSGGGGSGGGGSDIQLTQSPSSLSASIGDRVTITCQASEDINNYLNWYQQKPGKAPKLLIYDASNLETGVPSRFSGSGSGTDFTFTINSLQPEDIATYYCQQFDNMPLTFGGGTKLEIKAAATTTPAPRPPTPAPTIASQPLSLRPEACRPAAGGAVHTRGLDFACDIYIWAPLAGTCGVLLLSLVITLYCKRGRKKLLYIFKQPFMRPVQTTQEEDGCSCRFPEEEEGGCELRVKFSRSADAPAYQQGQNQLYNELNLGRREEYDVLDKRRGRDPEMGGKPRRKNPQEGLYNELQKDKMAEAYSEIGMKGERRRGKGHDGLYQGLSTATKDTYDALHMQALPPR | < 10 | > 65
